Measured values taken from patent publication US20220249692A1 (BIOSCEPTRE AUST, published 2022).

Biological target: T1, E200 epitope of P2X7R
T1 peptide: GHNYTTNILPGLNITC
Assay: ELISA, antibody-conjugated liposomes on E200 epitope

binding result: binds
B1: single domain antibody (variable domain of SEQ ID NO: 7) conjugated to gemcitabine liposome nanoparticles (VHH)
VHH: EVQLLESGGGLVQPGGSLRLSCAASGFTFRNHDMGWVRQAPGKGLEWVSAISGSGGSTYYANSVKGRFTISRDNSKNTLYLQMNSLRAEDTAVYYCAEPKPMDTEFDYRSPGTLVTVSS
modifications: activated via Traut's reagent (thiolated) and conjugated to maleimide groups of Maleimido-Succinyl-PEG4000-Oleate on the liposome
notes: also called BIL03s; BIL03s-coated nanoparticles
